From PMC2193914

Biological target: rat KLRE1-HA (short splice variant), in transiently transfected 293T cells (rat) (UniProt Q80ZC8)
Assay: SDS-PAGE under nonreducing and reducing conditions with Western blot

rat KLRE1-HA (short splice variant), in transiently transfected 293T cells (from UniProt Q80ZC8 1-226) (receptor)
stoichiometry N: 2
